We go through two molecules from ChEMBL document CHEMBL2073772, “Primary active transport of organic anions on bile canalicular membrane in humans” (Am J Physiol, 1999).

The target in data set [1] is ATP-binding cassette sub-family C member 2 (Homo sapiens, UniProt Q92887). In words: (§1) TP_TRANSPORTER: uptake in bile canalicular membrane vesicles. It counts as functional, cell membranes, Bile canalicular membrane vesicle.
Substrate in data set [2]: CNc1nc2c(Cc3cccnc3)c(C)c(O[C@@H]3O[C@H](C(=O)O)[C@@H](O)[C@H](O)[C@H]3O)c(C)c2s1
The description is as §1. Type of data set: functional, cell membranes, Homo sapiens, Bile canalicular membrane vesicle.

Substrate in data set [3]: N[C@@H](CCC(=O)N[C@H](CSc1ccc([N+](=O)[O-])cc1[N+](=O)[O-])C(=O)NCC(=O)O)C(=O)O
Described as §1. Type of data set: functional, cell membranes, Homo sapiens, Bile canalicular membrane vesicle.

Take `Cc1c(F)c(N2CCNC(C)C2)cc2c1c(=O)c(C(=O)O[C@@H]1O[C@H](C(=O)O)[C@@H](O)[C@H](O)[C@H]1O)cn2C1CC1` (stereo partly drawn) [GREPAFLOXACIN GLUCURONIDE]: the Activity entry in data set [1] was “substrate [+]”.

B1: ATP-binding cassette sub-family C member 2 (Homo sapiens) (protein)
chain: MLEKFCNSTFWNSSFLDSPEADLPLCFEQTVLVWIPLGYLWLLAPWQLLHVYKSRTKRSSTTKLYLAKQVFVGFLLILAAIELALVLTEDSGQATVPAVRYTNPSLYLGTWLLVLLIQYSRQWCVQKNSWFLSLFWILSILCGTFQFQTLIRTLLQGDNSNLAYSCLFFISYGFQILILIFSAFSENNESSNNPSSIASFLSSITYSWYDSIILKGYKRPLTLEDVWEVDEEMKTKTLVSKFETHMKRELQKARRALQRRQEKSSQQNSGARLPGLNKNQSQSQDALVLEDVEKKKKKSGTKKDVPKSWLMKALFKTFYMVLLKSFLLKLVNDIFTFVSPQLLKLLISFASDRDTYLWIGYLCAILLFTAALIQSFCLQCYFQLCFKLGVKVRTAIMASVYKKALTLSNLARKEYTVGETVNLMSVDAQKLMDVTNFMHMLWSSVLQIVLSIFFLWRELGPSVLAGVGVMVLVIPINAILSTKSKTIQVKNMKNKDKRLKIMNEILSGIKILKYFAWEPSFRDQVQNLRKKELKNLLAFSQLQCVVIFVFQLTPVLVSVVTFSVYVLVDSNNILDAQKAFTSITLFNILRFPLSMLPMMISSMLQASVSTERLEKYLGGDDLDTSAIRHDCNFDKAMQFSEASFTWEHDSEATVRDVNLDIMAGQLVAVIGPVGSGKSSLISAMLGEMENVHGHITIKGTTAYVPQQSWIQNGTIKDNILFGTEFNEKRYQQVLEACALLPDLEMLPGGDLAEIGEKGINLSGGQKQRISLARATYQNLDIYLLDDPLSAVDAHVGKHIFNKVLGPNGLLKGKTRLLVTHSMHFLPQVDEIVVLGNGTIVEKGSYSALLAKKGEFAKNLKTFLRHTGPEEEATVHDGSEEEDDDYGLISSVEEIPEDAASITMRRENSFRRTLSRSSRSNGRHLKSLRNSLKTRNVNSLKEDEELVKGQKLIKKEFIETGKVKFSIYLEYLQAIGLFSIFFIILAFVMNSVAFIGSNLWLSAWTSDSKIFNSTDYPASQRDMRVGVYGALGLAQGIFVFIAHFWSAFGFVHASNILHKQLLNNILRAPMRFFDTTPTGRIVNRFAGDISTVDDTLPQSLRSWITCFLGIISTLVMICMATPVFTIIVIPLGIIYVSVQMFYVSTSRQLRRLDSVTRSPIYSHFSETVSGLPVIRAFEHQQRFLKHNEVRIDTNQKCVFSWITSNRWLAIRLELVGNLTVFFSALMMVIYRDTLSGDTVGFVLSNALNITQTLNWLVRMTSEIETNIVAVERITEYTKVENEAPWVTDKRPPPDWPSKGKIQFNNYQVRYRPELDLVLRGITCDIGSMEKIGVVGRTGAGKSSLTNCLFRILEAAGGQIIIDGVDIASIGLHDLREKLTIIPQDPILFSGSLRMNLDPFNNYSDEEIWKALELAHLKSFVASLQLGLSHEVTEAGGNLSIGQRQLLCLGRALLRKSKILVLDEATAAVDLETDNLIQTTIQNEFAHCTVITIAHRLHTIMDSDKVMVLDNGKIIECGSPEELLQIPGPFYFMAKEAGIENVNSTKF
Consider B1, for which the Km in data set [2] came out at 14.1 µM; in data set [3] it was 193 µM.
